Two compounds from patent publication US20260026495A1, “STABLE PLASMIN COMPOSITIONS FOR ORGAN PRESERVATION AND RECONDITIONING” (Grifols Worldwide Operations Limited, priority 2022, published 2026) can be followed below.

The nature of series [1]: Plasmin activity after storage, S-2403 chromogenic substrate. Particulars: plasmin 1 mg/mL stored at 0° C. over a 24-hour period; FIG. 4A. Type of series: biochemical. As for the experimental part: To assess the compatibility of plasmin as an additive in Cold Storage Solutions, the activity of plasmin at a concentration of 1 mg/mL was assessed at multiple time points whilst stored at 0° C.
(white bars), 25° C. (black bars), or 37° C. (striped bars) for a 24 hour period. The commercial S-2403 plasmin specific chromogenic substrate was used to assess activity at each of the indicated times.
Significant plasmin activity is maintained when formulated with these excipients and diluted into organ preservation and reconditioning solutions. The commercial […] plasmin specific chromogenic substrate was used to assess activity at each of the indicated times.

The subject of the next series is plasmin. In words: Plasmin proteolytic activity in presence of TXA, S-2403 chromogenic substrate. Type of series: biochemical, human. Particulars: plasmin 1 mg/mL; TXA 0.001 mM to 100 mM; FIG. 3. An excerpt: S-2403 is a commercially available, plasmin specific chromogenic substrate.

Take plasmin: in series [1], the “plasmin activity (kinetics) during storage” value is recorded as “unaltered kinetics”.

`NC[C@H]1CC[C@H](C(=O)O)CC1` [TXA, tranexamic acid]: in the series on plasmin, the “proteolytic activity of plasmin (kinetics)” value was “unaltered kinetics”.
